Results on four molecules are retold here after publication PMC3927496.

By Kd is commonly meant the concentration at which binding is half-saturated. A higher Kd goes with lower affinity.

The target in data set [1] is thrombin (UniProt P00734;P00734 328-363;364-622). The experiment in a line: SPR. For orientation: In SPR one partner is held on a chip, and binding of the other changes the refractive index at the surface.
The target of data set [2] is VEGF165 (Homo sapiens, UniProt P15692-4 27-191). Nature of the data set: SPR.

B1: Linker 5 (15-mer-T5-29-mer) (structured_DNA)
DNA: GGTTGGTGTGGTTGGTTTTTAGTCCGTGGTAGGGCAGGTTGGGGTGACT
In data set [1], B1 yielded a Kd of 0.06 nM.

B2: Linker 0 (15-mer-29-mer) (structured_DNA)
DNA: GGTTGGTGTGGTTGGAGTCCGTGGTAGGGCAGGTTGGGGTGACT
In data set [1], B2 had a dissociation constant (Kd) of 0.14 nM.

B3: VEa5 (ssDNA)
DNA: ATACCAGTCTATTCAATTGGGCCCGTCCGTATGGTGGGTGTGCTGGCCAGATAGTATGTGCAATCA
Regarding B3, the Kd in data set [2] came out at 116 nM.

B4: Linker 10 (15-mer-T10-29-mer) (structured_DNA)
DNA: GGTTGGTGTGGTTGGTTTTTTTTTTAGTCCGTGGTAGGGCAGGTTGGGGTGACT
The molecule B4 had a Kd in data set [1] of 0.74 nM.
